From paper PMC10647171

B1: FeoB C-terminal peptide P1 (Ac-CCAASTTGDCH, FeoB 763-773) (Escherichia coli K12) (peptide)
chain: CCAASTTGDCH
B2: FeoB C-terminal peptide P2 (Ac-RRARSRVDIELLATRKSVSSCCAASTTGDCH, FeoB 743-773) (Escherichia coli K12) (peptide)
chain: RRARSRVDIELLATRKSVSSCCAASTTGDCH

Legend:
Experiment in all cases: potentiometry
[1] = molecular target: Cys30 (UniProt position 772, STTGDCH----); details: 298 K; 0.1 M NaClO4; none (4 mM HClO4, 0.1 M NaClO4); Zn(II)-bound mononuclear 1:1 complex
[2] = molecular target: Cterm31 (UniProt position 773, TTGDCH-----); details: 298 K; 0.1 M NaClO4; none (4 mM HClO4, 0.1 M NaClO4); free peptide, no metal, thiols reduced (argon atmosphere)
[3] = molecular target: His31 (UniProt position 773, TTGDCH-----); details: 298 K, 0.1 M NaClO4, none (4 mM HClO4, 0.1 M NaClO4)
[4] = molecular target: Asp29 (UniProt position 771, ASTTGDCH---); details: 298 K; 0.1 M NaClO4; none (4 mM HClO4, 0.1 M NaClO4); free peptide, no metal, thiols reduced (argon atmosphere)
[5] = molecular target: Cterm31 (position 31, TTGDCH-----); details: 298 K; 0.1 M NaClO4; none (4 mM HClO4, 0.1 M NaClO4); free peptide, no metal, thiols reduced (argon atmosphere)
[6] = molecular target: Cys30 (position 30, STTGDCH----); details: 298 K; 0.1 M NaClO4; none (4 mM HClO4, 0.1 M NaClO4); Zn(II)-bound mononuclear 1:1 complex
[7] = molecular target: Glu10 (position 10, …); details: 298 K, 0.1 M NaClO4, none (4 mM HClO4, 0.1 M NaClO4)
[8] = molecular target: His31 (position 31, TTGDCH-----); details: 298 K, 0.1 M NaClO4, none (4 mM HClO4, 0.1 M NaClO4)
[9] = Fe(II)-bound mononuclear 1:1 complex, anaerobic
[10] = Mn(II)-bound mononuclear 1:1 complex
[11] = Zn(II)-bound mononuclear 1:1 complex
[12] = free peptide, no metal, thiols reduced (argon atmosphere)

| Protein | pKa [1] | pKa [2] | pKa [3, 9] | pKa [3, 10] | pKa [3, 11] | pKa [3, 12] | pKa [4] | pKa [5] | pKa [6] | pKa [7, 9] | pKa [7, 10] | pKa [7, 12] | pKa [8, 9] | pKa [8, 10] | pKa [8, 11] | pKa [8, 12] |
| --- | --- | --- | --- | --- | --- | --- | --- | --- | --- | --- | --- | --- | --- | --- | --- | --- |
| B1 | 7.27 | 3.37 | 4.68 | 6.46 | 5.91 | 6.96 | 4.19 |  |  |  |  |  |  |  |  |  |
| B2 |  |  |  |  |  |  |  | 2.15 | 7.75 | 4.13 | 3.64 | 4.38 | 4.90 | 5.20 | 5.74 | 6.73 |
